# Results published in the supplement of paper PMC10126150.
# ± gives the standard deviation of the averaged measurements.
# Test system: ATP
# Assay: switch fluorescence ratio, 500 uM ATP over buffer (Cy3 cluster intensity, sum of 5 cycles each) (fold (ratio)); higher = stronger signal-on switching upon ATP binding; sequences stand for … in TCGTCGGCAGCGTCAGATGTGTATAAGAGACAGTTTTTTTTTTTTTTTTTTTTTTTTT…TC
# Settings: aptamer strand: ATP DNA aptamer (quencher-CACCTGGGGGAGTATTGCGGAGGAAGG + anchor), 100 nM annealed; ATP concentration: 500 uM
# Method in brief: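 Values give the fluorescence ratio for each switch-domain sequence, averaged from per-cluster ratios of summed target-cycle to summed buffer-cycle Cy3 intensity. The Cy3-labelled switching-strand clusters sat on a modified Illumina MiSeq flow-cell, were annealed to 100 nM quencher-labelled ATP aptamer, and were imaged in selection buffer, then after 15 min with 500 uM ATP at 22 °C. Five cycles ran with NaOH stripping and re-annealing between them, and clusters outside 100-1000 RFU were excluded.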
# 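Further: ATP exposure 15 min at 22 °C before imaging.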
row,Sequence,switch fluorescence ratio
1,TTTGACTTGT,1.005 ± 0.0045
2,TTTGAGAGAT,0.991 ± 0.029
3,TTTGAGATAC,1.39 ± 0.38
4,TTTGAGATCT,0.989 ± 0.027
5,TTTGAGATGG,0.99 ± 0.024
6,TTTGAGCATA,1.06 ± 0.042
7,TTTGAGCGTT,1.01 ± 0.04
8,TTTGAGCTAT,1.1 ± 0.029
9,TTTGAGGATT,1 ± 0.027
10,TTTGAGTAAT,1.027 ± 0.0017
11,TTTGAGTGAC,1.01 ± 0.031
12,TTTGAGTGGG,0.994 ± 0.025
13,TTTGATATGG,0.999 ± 0.038
14,TTTGATCTTT,1.01 ± 0.035
15,TTTGATGAGC,1.01 ± 0.034
16,TTTGATGCCG,0.973 ± 0.03
17,TTTGATGTTA,0.981 ± 0.034
18,TTTGATTAT,0.996 ± 0.012
19,TTTGATTTGT,1.042 ± 0.0087
20,TTTGATTTTT,0.984 ± 0.024
21,TTTGCAAAGT,1.005 ± 0.0069
22,TTTGCAACAG,0.986 ± 0.023
23,TTTGCACCCT,1.03 ± 0.041
24,TTTGCAGCAT,1.13 ± 0.22
25,TTTGCAGGCA,1.03 ± 0.011

row,Sequence,switch fluorescence ratio
1,TTTGCAGGGC,1.05 ± 0.012
2,TTTGCATCTC,1.03 ± 0.044
3,TTTGCCACTT,0.991 ± 0.011
4,TTTGCCAGGA,0.997 ± 0.0063
5,TTTGCCATAG,1.02 ± 0.022
6,TTTGCCTCGT,1.04 ± 0.025
7,TTTGCGCGTT,0.985 ± 0.018
8,TTTGCGCTCG,0.968 ± 0.037
9,TTTGCTCGCC,1.01 ± 0.04
10,TTTGCTGAAC,1.065 ± 0.0086
11,TTTGCTTCCG,1.1 ± 0.084
12,TTTGCTTTTA,1.04 ± 0.023
13,TTTGGAAGGA,0.998 ± 0.04
14,TTTGGAAGT,0.991 ± 0.028
15,TTTGGAGGTT,1.11 ± 0.2
16,TTTGGATAAA,1.04 ± 0.049
17,TTTGGCAATT,1.73 ± 0.57
18,TTTGGCCAGC,0.975 ± 0.051
19,TTTGGCGATT,0.962 ± 0.017
20,TTTGGCTAGT,1.01 ± 0.019
21,TTTGGCTGTA,0.97 ± 0.012
22,TTTGGGAAGT,1 ± 0.025
23,TTTGGGACTC,0.9731 ± 0.0023
24,TTTGGGCAGC,1.083 ± 0.0087
25,TTTGGGCCAT,1.04 ± 0.12

row,Sequence,switch fluorescence ratio
1,TTTGGGCTAT,1.021 ± 0.0064
2,TTTGGGGACT,0.984 ± 0.011
3,TTTGGGGCTT,1 ± 0.04
4,TTTGGGGGGC,1.05 ± 0.12
5,TTTGGGGTCT,1.01 ± 0.1
6,TTTGGGGTGG,0.974 ± 0.031
7,TTTGGGTCGG,0.993 ± 0.018
8,TTTGGGTGGT,1.09 ± 0.21
9,TTTGGGTTGC,0.982 ± 0.014
10,TTTGGTAATG,1.01 ± 0.021
11,TTTGGTAGAG,0.98 ± 0.018
12,TTTGGTCCCT,0.993 ± 0.016
13,TTTGGTGAGG,1.01 ± 0.02
14,TTTGGTGCCG,1.17 ± 0.23
15,TTTGGTGGCT,1.01 ± 0.015
16,TTTGGTGTAG,1.02 ± 0.015
17,TTTGGTTCGA,0.977 ± 0.012
18,TTTGGTTGTT,0.988 ± 0.019
19,TTTGGTTTAC,1.01 ± 0.019
20,TTTGGTTTT,0.988 ± 0.027
21,TTTGTAAAAA,0.9829 ± 0.0094
22,TTTGTAAAAG,0.977 ± 0.033
23,TTTGTAAGGG,0.986 ± 0.021
24,TTTGTAAGTG,0.988 ± 0.018
25,TTTGTACATT,1.01 ± 0.011

row,Sequence,switch fluorescence ratio
1,TTTGTACTCG,1.01 ± 0.011
2,TTTGTAGGCC,0.989 ± 0.03
3,TTTGTAGTCA,1.05 ± 0.083
4,TTTGTATACA,1.01 ± 0.015
5,TTTGTCGTTT,1.03 ± 0.055
6,TTTGTCTGTT,1.03 ± 0.038
7,TTTGTCTTC,0.95 ± 0.015
8,TTTGTGAGCA,1.06 ± 0.08
9,TTTGTGATTG,0.985 ± 0.094
10,TTTGTGGACT,1.01 ± 0.031
11,TTTGTGGGAG,0.998 ± 0.02
12,TTTGTGGGTG,1.01 ± 0.019
13,TTTGTGGTAT,1.03 ± 0.047
14,TTTGTGGTCG,1.02 ± 0.031
15,TTTGTGGTTA,1.04 ± 0.056
16,TTTGTGGTTT,0.985 ± 0.043
17,TTTGTGTAGG,1.02 ± 0.049
18,TTTGTGTCGT,0.982 ± 0.053
19,TTTGTGTCTG,0.998 ± 0.012
20,TTTGTTACTA,1 ± 0.1
21,TTTGTTAGCG,1.01 ± 0.053
22,TTTGTTCAT,0.998 ± 0.028
23,TTTGTTCGTT,1.01 ± 0.029
24,TTTGTTGACC,1.02 ± 0.013
25,TTTGTTGCTT,0.989 ± 0.012

row,Sequence,switch fluorescence ratio
1,TTTGTTGGGT,1 ± 0.022
2,TTTGTTGTGG,1.01 ± 0.048
3,TTTGTTTAGA,0.9917 ± 0.0069
4,TTTGTTTGTT,0.986 ± 0.02
5,TTTTAAAAAT,1.03 ± 0.056
6,TTTTAAAGCA,1.01 ± 0.03
7,TTTTAAATGA,1 ± 0.021
8,TTTTAACATA,1.02 ± 0.016
9,TTTTAACTAC,1.18 ± 0.15
10,TTTTAATGAT,0.983 ± 0.024
11,TTTTAATTAA,1.01 ± 0.044
12,TTTTACACCT,1.23 ± 0.2
13,TTTTACAGCG,1 ± 0.036
14,TTTTACAGGT,1.01 ± 0.028
15,TTTTACATTC,1.03 ± 0.056
16,TTTTACCATT,1.09 ± 0.061
17,TTTTACCCAA,1.04 ± 0.024
18,TTTTACCTTG,1.028 ± 0.01
19,TTTTACGGTA,1.12 ± 0.022
20,TTTTACGTGC,1.02 ± 0.05
21,TTTTACGTTG,0.995 ± 0.01
22,TTTTACTGCA,1.07 ± 0.073
23,TTTTACTTGC,1.0115 ± 0.00074
24,TTTTAGACAA,1.18 ± 0.17
25,TTTTAGAGCT,1.02 ± 0.018

row,Sequence,switch fluorescence ratio
1,TTTTAGAGGG,0.982 ± 0.034
2,TTTTAGATAT,0.98713 ± 0.00039
3,TTTTAGATCG,0.997 ± 0.016
4,TTTTAGGCGT,0.99 ± 0.013
5,TTTTAGGGAT,1.03 ± 0.021
6,TTTTAGGGGG,1 ± 0.038
7,TTTTAGGGTT,1.01 ± 0.027
8,TTTTAGTAGG,1.04 ± 0.091
9,TTTTAGTCT,1.01 ± 0.023
10,TTTTAGTCTA,0.9809 ± 0.0021
11,TTTTAGTGGG,1.01 ± 0.039
12,TTTTAGTTAA,1.01 ± 0.03
13,TTTTATACG,1.36 ± 0.51
14,TTTTATAGGT,0.998 ± 0.017
15,TTTTATATCC,0.963 ± 0.028
16,TTTTATGAGC,1.03 ± 0.045
17,TTTTATGGAG,0.998 ± 0.013
18,TTTTATGGT,1.013 ± 0.0067
19,TTTTATTAGT,0.989 ± 0.044
20,TTTTATTCTG,1.01 ± 0.038
21,TTTTATTGAA,1 ± 0.03
22,TTTTATTGTA,0.999 ± 0.032
23,TTTTATTGTG,1 ± 0.027
24,TTTTATTTTA,0.991 ± 0.039
25,TTTTATTTTG,1.01 ± 0.057

row,Sequence,switch fluorescence ratio
1,TTTTCAACGG,1.01 ± 0.0017
2,TTTTCAAGGG,0.967 ± 0.015
3,TTTTCACTCG,1.006 ± 0.0038
4,TTTTCAGATG,1.02 ± 0.015
5,TTTTCATGGC,1.06 ± 0.018
6,TTTTCCTGCG,1.65 ± 0.64
7,TTTTCGATGT,0.994 ± 0.042
8,TTTTCGGGGC,0.981 ± 0.035
9,TTTTCGGGGG,1 ± 0.04
10,TTTTCGTAAT,2.26 ± 1.9
11,TTTTCGTAGC,1.09 ± 0.14
12,TTTTCGTAGG,0.983 ± 0.011
13,TTTTCGTC,0.978 ± 0.03
14,TTTTCGTGCT,0.956 ± 0.05
15,TTTTCGTTCG,1.01 ± 0.059
16,TTTTCTAGTA,0.983 ± 0.038
17,TTTTCTCCGA,1.2 ± 0.26
18,TTTTCTCCTC,1.31 ± 0.35
19,TTTTCTCTAG,1.01 ± 0.055
20,TTTTCTCTTA,1.0182 ± 0.00039
21,TTTTCTGGCT,1.04 ± 0.035
22,TTTTCTGGGG,0.994 ± 0.032
23,TTTTCTGTGG,0.994 ± 0.035
24,TTTTGAACAA,1.02 ± 0.039
25,TTTTGAAGCC,1.03 ± 0.014

row,Sequence,switch fluorescence ratio
1,TTTTGAAGCG,0.99 ± 0.024
2,TTTTGACTGC,0.977 ± 0.05
3,TTTTGAGGGT,0.99 ± 0.023
4,TTTTGAGGTA,1.05 ± 0.023
5,TTTTGAGTAC,1.01 ± 0.042
6,TTTTGAGTGG,0.995 ± 0.025
7,TTTTGAGTTT,0.984 ± 0.028
8,TTTTGATATC,0.997 ± 0.012
9,TTTTGATTAC,1.01 ± 0.065
10,TTTTGCAAGC,1.14 ± 0.13
11,TTTTGCATTC,1.1 ± 0.053
12,TTTTGCATTT,1.04 ± 0.055
13,TTTTGCCATA,1.02 ± 0.042
14,TTTTGCCCGA,0.988 ± 0.029
15,TTTTGCCGAG,0.994 ± 0.011
16,TTTTGCCTTC,1.09 ± 0.027
17,TTTTGCCTTG,0.967 ± 0.043
18,TTTTGCGGAT,1.04 ± 0.015
19,TTTTGCTCGG,0.998 ± 0.025
20,TTTTGCTTGG,1.01 ± 0.015
21,TTTTGGAAAT,1.02 ± 0.027
22,TTTTGGACGG,1.01 ± 0.032
23,TTTTGGAGC,1.05 ± 0.068
24,TTTTGGATTG,0.986 ± 0.026
25,TTTTGGCAGA,0.982 ± 0.047
